Source: patent US20240287172A1 (SCIRHOM, published 2024)
Positions count from the first letter of the chain named.

B1: antibody 48 (antibody, V domains shown)
VH: QVQLQQSGTELVRPGTSVKVSCKASGYAFTNYLIEWVKQRPGQGLEWIGVINPGSGFTKYNEKFKGKATLTADKSSSTVYMHLSSLTSEDSAVYFCARGLYRAMDYWGQGTSVTVSS
VL: DIQMTQSPASQSASLGESVTITCLASQTIATWLAWYQQKPGKSPQLLIYGATTLADGVPSRFSGGGSGTKFSFKISSLQAEDFVSYYCQQLYSTPYTFGGGTKLEIK
notes: mouse IgG, kappa light chain; also called clone #48; purified antibody 48
B2: antibody 5 (antibody, V domains shown)
VH: QVTLKESGPGILQPSQTLSLTCSFSGFSLSTFGMGVGWIRQPSGKGLEWLAHIWWDDEKYYNSALKSRLTISKATSKNQAFLKIANVDTADTATYYCARISNYGSNYWYFNVWGTGTTVTVSS
VL: QVVLTQSPALMSASPGEKVTMTCSAGSSVSCMYWYQQKPGSSPRVLIYDTSNLASGVPARFTGSGSGTSYSLTISRMEAEDAASYYCQQWNSYPLTFGAGTKLELK
notes: mouse IgG, kappa light chain; also called clone #5; purified antibody 5
B3: antibody 43 (antibody, V domains shown)
VH: B2 VH with T3A, P42S, H52N, E58D, S63P, A74D, T75A, S101G, N111D
VL: QIVLTQSPAIMSASPGERVTMTCSANSRISYMYWYQQKPGSSPRLLIYDTSNLASGVPVRFSGSGSGTSYSLTISRMEAEDAATYNCQQWSSYPLTFGAGTKLELK
notes: mouse IgG, kappa light chain; also called clone #43; purified antibody 43
B4: antibody 44 (antibody, V domains shown)
VH: B2 VH with G44E, E58D, S63P, A74D, A80I, A85T, D91E, A98S, S101G, N111D
VL: QIVLTQSPAVMSASPGEKVTMTCTASSSVYYMYWYQQTPGSSPRLLIYDTSNLASGVPVRFSGSGSGTSYSLTISRMEAEDAATYYCQQWNTYPLTFGAGTKLELK
notes: mouse IgG, kappa light chain; also called clone #44; purified antibody 44
B5: antibody 22 (antibody, V domains shown)
VH: B2 VH with A80V
VL: B2 VL with C31Y, S84T
notes: mouse IgG, kappa light chain; also called clone #22; purified antibody 22
B6: antibody 16 (antibody, V domains shown)
VH: QVTLKESGPGILQPSQTLSLTCSFSGFSLSTFALGVGWIRQPSGRGLEWLAHIWWDDDKYYNPALKSRLTISKDTSKNHVFLKIANVDTADTATYYCARITTYYYGMDYWGQGTSVTVSS
VL: DIVLSQSPATLSVTPGDSVSLFCRASQSIGNHLHWYQQESHASPRLLIKYASQSISGIPSRFSGSGSGTDFTLSINSVETEDFGMYFCQQSYNWPLTFGAGTKLELK
notes: mouse IgG, kappa light chain; also called clone #16; purified antibody 16

biological target: T1, hiR2-FL-R554A-T7 (human, UniProt Q6PJF5 1-856); assay: FACS on MEF-DKO cells expressing the variant, 3 µg/ml antibody
T1 sequence: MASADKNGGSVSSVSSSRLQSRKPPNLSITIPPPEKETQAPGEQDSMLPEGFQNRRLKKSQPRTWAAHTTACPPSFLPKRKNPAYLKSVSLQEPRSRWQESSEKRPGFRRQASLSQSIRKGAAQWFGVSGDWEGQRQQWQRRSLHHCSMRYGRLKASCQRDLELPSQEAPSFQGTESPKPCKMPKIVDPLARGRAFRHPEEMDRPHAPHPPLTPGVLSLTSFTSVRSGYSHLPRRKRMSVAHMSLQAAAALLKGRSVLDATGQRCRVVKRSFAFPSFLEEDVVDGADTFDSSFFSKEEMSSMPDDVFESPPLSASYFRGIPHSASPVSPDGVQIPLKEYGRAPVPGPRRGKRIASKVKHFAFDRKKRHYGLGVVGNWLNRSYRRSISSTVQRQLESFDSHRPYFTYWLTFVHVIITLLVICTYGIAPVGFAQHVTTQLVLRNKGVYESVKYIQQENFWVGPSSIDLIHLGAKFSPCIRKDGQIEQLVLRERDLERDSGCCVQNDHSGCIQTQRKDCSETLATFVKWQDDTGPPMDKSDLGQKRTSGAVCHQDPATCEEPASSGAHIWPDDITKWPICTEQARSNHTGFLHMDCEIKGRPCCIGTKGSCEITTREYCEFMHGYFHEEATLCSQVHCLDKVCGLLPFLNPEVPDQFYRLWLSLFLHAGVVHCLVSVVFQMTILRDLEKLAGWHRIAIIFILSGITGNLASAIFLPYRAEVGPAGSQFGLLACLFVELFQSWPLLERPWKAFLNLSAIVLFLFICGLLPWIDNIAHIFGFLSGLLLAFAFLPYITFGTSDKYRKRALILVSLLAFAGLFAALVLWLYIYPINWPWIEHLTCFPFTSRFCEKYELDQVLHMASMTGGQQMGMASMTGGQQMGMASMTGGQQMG
Summary of the method: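 Flow cytometry read-out of binding to variant-expressing cells after two-step staining on ice: 1 h with antibody at 3 μg/ml, then 1 h with PE-labelled goat anti-mouse IgG F(ab′)2 diluted 1:100. Controls received FACS buffer without primary antibody.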

Row | Binder | loss of binding vs wild type [%]
1 | B1 | ≥ 30
2 | B2 | ≥ 60
3 | B3 | ≥ 30
4 | B4 | ≥ 60
5 | B5 | ≥ 30

biological target: T2, hiR1-FL-WT-T7 (human, UniProt Q96CC6 1-855); assay: FACS on MEF-DKO cells
T2 construct: on MEF-DKO cells
T2 sequence: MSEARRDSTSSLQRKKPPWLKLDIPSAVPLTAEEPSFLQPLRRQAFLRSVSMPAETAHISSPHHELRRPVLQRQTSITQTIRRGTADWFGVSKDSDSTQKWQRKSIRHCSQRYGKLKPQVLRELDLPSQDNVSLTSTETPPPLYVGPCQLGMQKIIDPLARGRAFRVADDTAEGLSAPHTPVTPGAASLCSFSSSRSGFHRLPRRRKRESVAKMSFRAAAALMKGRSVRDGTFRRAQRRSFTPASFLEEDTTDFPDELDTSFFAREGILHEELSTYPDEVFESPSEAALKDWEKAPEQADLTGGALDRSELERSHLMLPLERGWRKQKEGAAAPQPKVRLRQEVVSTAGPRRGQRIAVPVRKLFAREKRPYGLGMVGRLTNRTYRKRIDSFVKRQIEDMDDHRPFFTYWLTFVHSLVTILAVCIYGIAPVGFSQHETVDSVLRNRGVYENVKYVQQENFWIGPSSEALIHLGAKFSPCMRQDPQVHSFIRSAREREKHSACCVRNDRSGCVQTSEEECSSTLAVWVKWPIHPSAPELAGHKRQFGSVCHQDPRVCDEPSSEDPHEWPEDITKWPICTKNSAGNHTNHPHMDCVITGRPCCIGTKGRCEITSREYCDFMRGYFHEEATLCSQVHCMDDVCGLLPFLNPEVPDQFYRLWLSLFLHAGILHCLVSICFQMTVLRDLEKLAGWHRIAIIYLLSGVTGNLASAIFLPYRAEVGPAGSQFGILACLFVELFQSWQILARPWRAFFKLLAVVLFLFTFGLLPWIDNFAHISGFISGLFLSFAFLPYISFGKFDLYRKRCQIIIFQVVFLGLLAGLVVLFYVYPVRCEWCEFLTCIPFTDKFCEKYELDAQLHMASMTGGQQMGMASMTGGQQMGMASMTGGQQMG

Row | Binder | binding result
6 | B6 | no binding (tested: 3 µg/ml)
7 | B2 | no binding (tested: 3 µg/ml)
8 | B5 | no binding (tested: 3 µg/ml)
